# Where a chain is given by its changes, count along the chain named.
# B1: v17427 (telisotuzumab paratope, HetFc, unmodified hinge, full-size IgG1 antibody) (antibody)
# heavy 1: QVQLVQSGAEVKKPGASVKVSCKASGYIFTAYTMHWVRQAPGQGLEWMGWIKPNNGLANYAQKFQGRVTMTRDTSISTAYMELSRLRSDDTAVYYCARSEITTEFDYWGQGTLVTVSSASTKGPSVFPLAPSSKSTSGGTAALGCLVKDYFPEPVTVSWNSGALTSGVHTFPAVLQSSGLYSLSSVVTVPSSSLGTQTYICNVNHKPSNTKVDKKVEPKSCDKTHTCPPCPAPELLGGPSVFLFPPKPKDTLMISRTPEVTCVVVDVSHEDPEVKFNWYVDGVEVHNAKTKPREEQYNSTYRVVSVLTVLHQDWLNGKEYKCKVSNKALPAPIEKTISKAKGQPREPQVYVYPPSRDELTKNQVSLTCLVKGFYPSDIAVEWESNGQPENNYKTTPPVLDSDGSFALVSKLTVDKSRWQQGNVFSCSVMHEALHNHYTQKSLSLSPG
# heavy 2: not shown
# light: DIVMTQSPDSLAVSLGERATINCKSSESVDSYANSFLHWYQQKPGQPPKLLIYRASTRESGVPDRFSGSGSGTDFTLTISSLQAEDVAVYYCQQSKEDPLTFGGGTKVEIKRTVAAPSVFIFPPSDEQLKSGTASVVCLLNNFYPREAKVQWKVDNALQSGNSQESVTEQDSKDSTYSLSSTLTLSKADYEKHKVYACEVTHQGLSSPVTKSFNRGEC
# notes: also called variant v17427; unconjugated HetFc variant
# B2: v17427-Drug-Linker 002 DAR 4 (antibody)
# heavy 1: B1 heavy 1
# heavy 2: not shown
# light: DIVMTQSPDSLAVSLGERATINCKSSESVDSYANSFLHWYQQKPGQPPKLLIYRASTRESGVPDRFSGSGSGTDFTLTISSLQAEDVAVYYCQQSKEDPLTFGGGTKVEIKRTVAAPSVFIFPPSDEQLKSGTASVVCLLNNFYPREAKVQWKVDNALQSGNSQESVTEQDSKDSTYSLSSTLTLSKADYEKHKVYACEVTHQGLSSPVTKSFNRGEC
# modifications: Drug-Linker 002 stochastically conjugated to lysine residues of the antibody, about DAR 4; Drug-Linker 002 (auristatin analogue Compound 1) stochastically conjugated to lysine residues of the antibody, about DAR 4
# notes: Antibody-drug conjugate of v17427
# B3: v17427-Drug-Linker 002 DAR 6 (antibody)
# heavy 1: B1 heavy 1
# heavy 2: not shown
# light: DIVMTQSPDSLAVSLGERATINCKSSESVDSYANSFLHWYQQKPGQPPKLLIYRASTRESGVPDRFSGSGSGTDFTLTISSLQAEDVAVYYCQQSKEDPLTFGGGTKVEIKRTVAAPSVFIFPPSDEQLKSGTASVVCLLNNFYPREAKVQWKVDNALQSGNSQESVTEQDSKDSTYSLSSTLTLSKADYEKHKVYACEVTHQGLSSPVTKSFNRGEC
# modifications: Drug-Linker 002 stochastically conjugated to lysine residues of the antibody, about DAR 6; Drug-Linker 002 (auristatin analogue Compound 1) stochastically conjugated to lysine residues of the antibody, about DAR 6
# notes: as for B2
# B4: v32634 (telisotuzumab paratope, HomoFc, unmodified hinge, full-size IgG1 antibody) (antibody, V domains shown)
# VH: QVQLVQSGAEVKKPGASVKVSCKASGYIFTAYTMHWVRQAPGQGLEWMGWIKPNNGLANYAQKFQGRVTMTRDTSISTAYMELSRLRSDDTAVYYCARSEITTEFDYWGQGTLVTVSS
# VL: DIVMTQSPDSLAVSLGERATINCKSSESVDSYANSFLHWYQQKPGQPPKLLIYRASTRESGVPDRFSGSGSGTDFTLTISSLQAEDVAVYYCQQSKEDPLTFGGGTKVEIKR
# notes: also called variant v32634; unconjugated HomoFc variant
# B5: v29001 (telisotuzumab paratope, HetFc, unmodified hinge, two cysteine insertions between T299 and Y300) (antibody, human IgG1, kappa)
# heavy 1: QVQLVQSGAEVKKPGASVKVSCKASGYIFTAYTMHWVRQAPGQGLEWMGWIKPNNGLANYAQKFQGRVTMTRDTSISTAYMELSRLRSDDTAVYYCARSEITTEFDYWGQGTLVTVSSASTKGPSVFPLAPSSKSTSGGTAALGCLVKDYFPEPVTVSWNSGALTSGVHTFPAVLQSSGLYSLSSVVTVPSSSLGTQTYICNVNHKPSNTKVDKKVEPKSCDKTHTCPPCPAPELLGGPSVFLFPPKPKDTLMISRTPEVTCVVVDVSHEDPEVKFNWYVDGVEVHNAKTKPREEQYNSTCYRVVSVLTVLHQDWLNGKEYKCKVSNKALPAPIEKTISKAKGQPREPQVYVYPPSRDELTKNQVSLTCLVKGFYPSDIAVEWESNGQPENNYKTTPPVLDSDGSFALVSKLTVDKSRWQQGNVFSCSVMHEALHNHYTQKSLSLSPG
# heavy 2: B5 heavy 1 with Y353L, T368L, K394L, T396W, A407F, V409Y
# light: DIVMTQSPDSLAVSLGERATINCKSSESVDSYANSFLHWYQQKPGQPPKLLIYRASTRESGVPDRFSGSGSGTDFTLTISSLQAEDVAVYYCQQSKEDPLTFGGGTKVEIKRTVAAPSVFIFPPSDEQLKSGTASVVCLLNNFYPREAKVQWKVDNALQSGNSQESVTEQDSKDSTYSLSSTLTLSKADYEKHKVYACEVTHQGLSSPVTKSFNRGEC
# notes: also called variant v29001; cysteine insertion variant v29001
# B6: v29001-Drug-Linker 004 DAR 6 (antibody, human IgG1, kappa)
# heavy 1: B5 heavy 1
# heavy 2: B5 heavy 1 with Y353L, T368L, K394L, T396W, A407F, V409Y
# light: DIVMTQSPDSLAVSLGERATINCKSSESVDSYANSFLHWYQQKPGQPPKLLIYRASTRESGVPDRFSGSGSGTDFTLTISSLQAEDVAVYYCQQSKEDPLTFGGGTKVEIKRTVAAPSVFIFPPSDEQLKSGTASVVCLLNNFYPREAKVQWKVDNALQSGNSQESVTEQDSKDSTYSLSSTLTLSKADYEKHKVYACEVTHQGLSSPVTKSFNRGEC
# modifications: trivalent Drug-Linker 004 on the cysteine inserted between T299 and Y300 (EU); trivalent Drug-Linker 004 (three Compound 1) on the cysteine inserted between T299 and Y300 (EU)
# notes: Site-specific cysteine-conjugated antibody-drug conjugate of v29001
# B7: v29001-Drug-Linker 001 DAR 2 (antibody, human IgG1, kappa)
# heavy 1: B5 heavy 1
# heavy 2: B5 heavy 1 with Y353L, T368L, K394L, T396W, A407F, V409Y
# light: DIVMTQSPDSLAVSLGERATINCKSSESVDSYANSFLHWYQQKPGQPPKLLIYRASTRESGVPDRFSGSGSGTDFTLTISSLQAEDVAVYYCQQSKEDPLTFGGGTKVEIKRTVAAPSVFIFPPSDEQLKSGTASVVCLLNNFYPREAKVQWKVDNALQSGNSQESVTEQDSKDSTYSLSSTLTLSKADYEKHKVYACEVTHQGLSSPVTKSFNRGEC
# modifications: Drug-Linker 001 on the cysteine inserted between T299 and Y300 (EU); Drug-Linker 001 (auristatin analogue Compound 1) on the cysteine inserted between T299 and Y300 (EU)
# notes: as for B6
# B8: v29001-Drug-Linker 003 DAR 4 (antibody, human IgG1, kappa)
# heavy 1: B5 heavy 1
# heavy 2: B5 heavy 1 with Y353L, T368L, K394L, T396W, A407F, V409Y
# light: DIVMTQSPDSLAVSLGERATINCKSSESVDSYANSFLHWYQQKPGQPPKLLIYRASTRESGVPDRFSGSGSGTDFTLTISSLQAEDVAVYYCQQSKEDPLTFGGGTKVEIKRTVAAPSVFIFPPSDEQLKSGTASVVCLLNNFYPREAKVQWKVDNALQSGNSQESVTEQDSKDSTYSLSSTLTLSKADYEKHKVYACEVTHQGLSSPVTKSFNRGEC
# modifications: bivalent Drug-Linker 003 on the cysteine inserted between T299 and Y300 (EU); bivalent Drug-Linker 003 (two Compound 1) on the cysteine inserted between T299 and Y300 (EU)
# notes: as for B6
# B9: v32634-Drug-Linker 002 DAR6 (antibody, V domains shown)
# VH: B4 VH
# VL: B4 VL
# modifications: Drug-Linker 002 stochastically conjugated to lysine residues of the antibody, about DAR 6; Drug-Linker 002 (auristatin analogue Compound 1) stochastically conjugated to lysine residues of the antibody, about DAR 6
# notes: Antibody-drug conjugate of v32634
# B10: v32634-Drug-Linker 002 DAR4 (antibody, V domains shown)
# VH: B4 VH
# VL: B4 VL
# modifications: Drug-Linker 002 stochastically conjugated to lysine residues of the antibody, about DAR 4; Drug-Linker 002 (auristatin analogue Compound 1) stochastically conjugated to lysine residues of the antibody, about DAR 4
# notes: as for B9
# Molecular target: T1, c-Met (hepatocyte growth factor receptor, HGFR), endogenous on tumour cell lines (UniProt P08581 25-1390, limits assumed)
# T1 construct: whole, on cells
# T1 sequence (P08581 25-1390 limits assumed): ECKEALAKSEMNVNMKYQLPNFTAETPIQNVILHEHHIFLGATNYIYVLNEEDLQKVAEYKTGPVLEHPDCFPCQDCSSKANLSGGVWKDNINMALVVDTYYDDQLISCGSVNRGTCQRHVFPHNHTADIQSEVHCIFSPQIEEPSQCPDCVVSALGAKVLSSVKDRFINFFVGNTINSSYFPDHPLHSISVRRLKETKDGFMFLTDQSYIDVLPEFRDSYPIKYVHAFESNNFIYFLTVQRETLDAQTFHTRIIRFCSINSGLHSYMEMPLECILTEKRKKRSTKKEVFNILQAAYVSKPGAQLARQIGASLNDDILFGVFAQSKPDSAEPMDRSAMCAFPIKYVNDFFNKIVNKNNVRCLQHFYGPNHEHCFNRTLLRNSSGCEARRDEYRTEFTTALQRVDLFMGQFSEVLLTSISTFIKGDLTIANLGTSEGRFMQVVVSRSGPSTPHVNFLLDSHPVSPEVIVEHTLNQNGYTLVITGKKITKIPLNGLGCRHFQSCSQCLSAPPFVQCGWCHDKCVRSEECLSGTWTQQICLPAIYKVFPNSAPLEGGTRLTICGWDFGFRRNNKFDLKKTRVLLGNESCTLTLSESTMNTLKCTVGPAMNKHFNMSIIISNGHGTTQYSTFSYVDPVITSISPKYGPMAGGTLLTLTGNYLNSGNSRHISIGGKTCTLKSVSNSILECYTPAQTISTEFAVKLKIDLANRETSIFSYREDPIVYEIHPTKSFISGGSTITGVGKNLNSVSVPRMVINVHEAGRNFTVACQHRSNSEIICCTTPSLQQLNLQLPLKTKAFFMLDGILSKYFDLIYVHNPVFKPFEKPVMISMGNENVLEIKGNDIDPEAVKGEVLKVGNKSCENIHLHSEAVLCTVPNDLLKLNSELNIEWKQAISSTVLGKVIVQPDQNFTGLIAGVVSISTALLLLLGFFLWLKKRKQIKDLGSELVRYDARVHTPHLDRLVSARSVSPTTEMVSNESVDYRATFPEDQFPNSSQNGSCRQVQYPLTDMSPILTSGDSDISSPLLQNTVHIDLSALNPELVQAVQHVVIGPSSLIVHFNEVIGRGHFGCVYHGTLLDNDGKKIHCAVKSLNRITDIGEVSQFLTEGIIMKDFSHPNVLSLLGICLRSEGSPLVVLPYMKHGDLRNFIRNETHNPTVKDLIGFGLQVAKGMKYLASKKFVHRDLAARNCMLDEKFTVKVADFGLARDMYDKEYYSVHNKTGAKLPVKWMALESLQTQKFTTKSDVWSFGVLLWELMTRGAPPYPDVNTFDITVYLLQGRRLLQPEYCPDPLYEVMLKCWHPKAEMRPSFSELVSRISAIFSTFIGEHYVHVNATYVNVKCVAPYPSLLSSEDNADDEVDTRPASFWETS
# Test: apparent Kd, flow cytometry on H292 cells (endogenous cMet)
# Experimental: (§1) Briefly, cells were seeded at 50,000 cells/well in V-bottom 96-well plates and treated with antibody for 24 hours at 4° C. to prevent internalization. Following incubation, cells were washed and stained with anti-human IgG Fc AF647 conjugate (Jackson ImmunoResearch Laboratories, Inc., West Grove, PA; Cat. No. 109-605-098) at 4° C. for 30 min. Following incubation and washing, fluorescence was detected by flow cytometry on a BD LSRFortessa™ Cell Analyzer (BD Biosciences, Franklin Lake, NJ) with 1,000 minimum events collected per well. AF647/APC-A GeoMean (fluorescence signal geometric mean, proportional to anti-Human AF647 binding) in live cell population was plotted using GraphPad Prism Version 8 (GraphPad Software, San Diego, CA).
row,Binder,Kd [nM]
1,B1,0.03
2,B2,0.04
3,B3,0.05
4,B4,0.02

# Molecular target: T1, c-Met (hepatocyte growth factor …)
# Test: as above
# Remark: another data set of the same source
# Experimental: as §1
# (§2) Cellular binding was determined as described in Example 10.
row,Binder,Kd [nM]
1,B5,0.024
2,B6,0.028
3,B7,0.064
4,B8,0.03
5,B1,0.026
6,B2,0.04
7,B3,0.047

# Molecular target: T1, c-Met (hepatocyte growth factor …)
# Test: apparent Kd, flow cytometry on SNU-5 cells (endogenous cMet)
# Experimental: as §1
row,Binder,Kd [nM]
1,B1,0.33
2,B2,0.43
3,B3,0.43
4,B4,0.59
5,B9,0.71
6,B10,0.46

# Molecular target: T1, c-Met (hepatocyte growth factor …)
# Test: as above
# Remark: another data set of the same source
# Experimental: as §1, §2
row,Binder,Kd [nM]
1,B5,0.428
2,B6,0.615
3,B7,0.584
4,B8,1.13
5,B1,0.328
6,B2,0.428
7,B3,0.435

# Molecular target: T1, c-Met (hepatocyte growth factor …)
# Test: flow cytometry on H292 cells (endogenous cMet), as in Example 10
# Experimental: as §1, §2
row,Binder,Bmax
1,B5,2040 AF647 GeoMean fluorescence
2,B6,2010 AF647 GeoMean fluorescence
3,B7,2070 AF647 GeoMean fluorescence
4,B8,2048 AF647 GeoMean fluorescence
5,B1,2120 AF647 GeoMean fluorescence
6,B2,2120 AF647 GeoMean fluorescence
7,B3,2150 AF647 GeoMean fluorescence

# Molecular target: T1, c-Met (hepatocyte growth factor …)
# Test: flow cytometry on SNU-5 cells (endogenous cMet), as in Example 10
# Experimental: as §1, §2
row,Binder,Bmax
1,B5,32100 AF647 GeoMean fluorescence
2,B6,37700 AF647 GeoMean fluorescence
3,B7,35800 AF647 GeoMean fluorescence
4,B8,38600 AF647 GeoMean fluorescence
5,B1,34800 AF647 GeoMean fluorescence
6,B2,34100 AF647 GeoMean fluorescence
7,B3,33500 AF647 GeoMean fluorescence

# Molecular target: T1, c-Met (hepatocyte growth factor …)
# Test: flow cytometry on H292 cells (endogenous cMet), 24 h at 4 C, anti-human IgG Fc AF647
# Experimental: as §1
row,Binder,Bmax
1,B1,2120 AF647 GeoMean fluorescence
2,B2,2120 AF647 GeoMean fluorescence
3,B3,2150 AF647 GeoMean fluorescence
4,B4,2240 AF647 GeoMean fluorescence
5,B9,2200 AF647 GeoMean fluorescence
6,B10,2130 AF647 GeoMean fluorescence

# Molecular target: T1, c-Met (hepatocyte growth factor …)
# Test: flow cytometry on SNU-5 cells (endogenous cMet), 24 h at 4 C, anti-human IgG Fc AF647
# Experimental: as §1
row,Binder,Bmax
1,B1,34800 AF647 GeoMean fluorescence
2,B2,34100 AF647 GeoMean fluorescence
3,B3,33500 AF647 GeoMean fluorescence
4,B4,37200 AF647 GeoMean fluorescence
5,B9,41100 AF647 GeoMean fluorescence
6,B10,33700 AF647 GeoMean fluorescence

# — US20250222128A1 (Zymeworks, published 2025)
